# B1: HDV Ribozyme (parent)
# chain: GGCCGGCAUGGUCCCAGCCUCCUCGCUGGCGCCGGCUGGGCAACAUUCCGAGGGGACCGUCCCCUCGGUAAUGGCGAAUGGGACCCA
# Variants of: B1
# Experiment: self-cleavage, relative activity (ratio to wild type); higher = more cleavage; co-transcriptional
row,Variant,self-cleavage
1,G31C G34C,0.0396
2,G31U C75U,0.0665
3,G31U C75G,0.148
4,C30G A43C,0.0489
5,G31C U69A,0.299
6,G31C A56G,0.166
7,G31C G59U,0.252
8,G29C U65G,0.123
9,G29C U65A,0.095
10,G31U A42C,0.131
11,G31U A42U,0.104
12,G29C G76A,0.0545
13,G29U G76A,0.107
14,C30A C44U,0.132
15,C30U C44G,0.135
16,C30U C44A,0.117
17,C30U C44U,0.289
18,C30U G38A,0.0773
19,C30G U37C,0
20,G29C G52A,0.0615
21,C30G U60A,0.154
22,C30G C62G,0
23,G31A A42U,0.107
24,G31A A42G,0.116

row,Variant,self-cleavage
1,G31A A42C,0.102
2,G29C C75U,0.0287
3,G29C C75G,0.131
4,C30U A71G,0.633
5,C30G C75A,0.0583
6,G29U G73U,0.095
7,G29U G73C,0.185
8,G29C G67A,0.0739
9,G29C G67U,0.0773
10,G31A C57G,0.529
11,G31A C57A,0.708
12,C30U G73U,0.153
13,C30A C49A,0.405
14,G31U G74C,0.223
15,G29U C86U,0.0959
16,C30U G35A,0.136
17,C30A C86U,0.68
18,G31C G53C,0.332
19,C30A U47C,0.314
20,C30A G68C,0.308
21,G31C G76U,0.463
22,G31C C63G,0.34
23,G31C A78C,0.0997
24,G31C C49A,0.415

row,Variant,self-cleavage
1,G31U G53C,0.563
2,G31U C36U,0.0702
3,G31A C36U,0.241
4,C30G U72G,0.0923
5,C30A A78G,0.309
6,C30G U46A,0.0906
7,C30G U46G,0.0361
8,G31A A83U,0.178
9,G31A A83C,0.0811
10,G31A A83G,0.228
11,G31U A43G,0.0475
12,G31A G67U,0.439
13,G31A U79G,0.266
14,G31A U79C,0.11
15,C30G C66G,0.0326
16,C30A A77C,0.0852
17,G31U C57U,0.383
18,G29C G50A,0.0277
19,G29C G50C,0
20,C30U U79C,0.148
21,G29U A42U,0.102
22,G29U A42G,0.148
23,C30U G34A,0.0875
24,C30G G76A,0.0554

row,Variant,self-cleavage
1,C30G G76C,0.117
2,C30A C48A,0.635
3,G29U A43G,0.131
4,G31A G80U,0.104
5,C30U A51U,0.791
6,G31A A56C,0.445
7,G31C A77U,0.0489
8,G31C U79A,0.17
9,C30U C61G,0.369
10,C30U C61A,0.718
11,G31A G55A,0.376
12,G31A C63G,0.365
13,G31A C63A,0.379
14,G29C C66U,0.0573
15,G31A U46A,0.108
16,G31A G73U,0.229
17,G31A G73C,0.107
18,G31A G73A,0.234
19,G31C C75G,0.0396
20,C30G C32U,0.113
21,C30G C32G,0.0627
22,G29U C66U,0.147
23,G31U G50C,0.237
24,G29U G53U,0.0213

row,Variant,self-cleavage
1,C30G A87C,0.122
2,C30U C32U,0.7
3,G31C C48A,0.449
4,G31A G74U,0.134
5,G31U A77C,0.0489
6,G31A G82U,0.0715
7,C30G G74C,0.108
8,C30G G74U,0.128
9,C30U G54U,0.597
10,C30U G67U,0.75
11,G29C G35C,0.0405
12,C30A C84G,0
13,G29C G82U,0.0959
14,G31C U72G,0.128
15,G31C C61U,0.262
16,C30A G38U,0.107
17,C30G A83G,0
18,C30G A83U,0.16
19,G29C U47C,0.0554
20,G29C U47G,0
21,G29C U47A,0.214
22,C30U G81A,0.155
23,C30A C58U,0.318
24,C30A C58A,0.623

row,Variant,self-cleavage
1,C30A G53A,0.389
2,G31A C48U,0.393
3,G31A C48G,0.456
4,C30A C61G,0.583
5,C30A C61U,0.601
6,G29U G80U,0.0885
7,G29U G80C,0.0504
8,C30G U47C,0.0941
9,C30G U47A,0.0354
10,C30A G39U,0.185
11,C30A A56C,0.875
12,G29C U72C,0
13,G29C G38U,0.0627
14,G31C G52A,0.234
15,G31C G52U,0.391
16,C30A A71U,0.386
17,G31A A45G,0.422
18,G31C A83C,0.185
19,G31U A71C,0.0369
20,G31U A71G,0.271
21,G29C U79C,0.138
22,C30G A70U,0.0468
23,G31U G67U,0.297
24,C30G A45U,0.107

row,Variant,self-cleavage
1,C30A U37C,0.199
2,G29U G81C,0.086
3,G29C G59A,0.0332
4,G29C G59U,0.163
5,G29C U46G,0.0723
6,G31C U37A,0.115
7,G31A A70G,0.4
8,C30G C33U,0
9,G29U C49A,0.111
10,G29U C49U,0.0583
11,G31U G34A,0.0804
12,G31C G50C,0.511
13,C30A A51G,0.361
14,C30G U65C,0
15,C30G U65G,0.0346
16,C30U C57U,0.932
17,C30U C57A,0.787
18,G31U G59C,0.57
19,G29C U60A,0.0426
20,G31A G68A,0.481
21,G31A G68U,0.463
22,G29U G40U,0.0923
23,C30G G82A,0.0941

# From the RNAGym collection of RNA variant scans (doi:10.7554/elife.80360)
